The text below walks through data of patent publication US20230087128A1 (KEROS THERAPEUTICS, published 2023).

The chains are these.
B1: ActRIIB (SEQ ID NO: 17)-Fc (Fc fusion, not shown: a dimerising Fc or GST)
chain: GRGEAETRECIYYNANWELERTNQSGLERCEGEQDKRLHCYASWRNSSGTIELVKKGCWLDDFNCYDRQECVATEENPQVYFCCCEGNFCNERFTHLPEAGGPEVTYEPPPTAPT
notes: Recombinant wild-type extracellular ActRIIB-Fc; also called ActRIIB-Fc
B3: growth differentiation factor 11 (GDF11) (ligand, UniProt O95390 299-407, looked up)
chain: NLGLDCDEHSSESRCCRYPLTVDFEAFGWDWIIAPKRYKANYCSGQCEYMFMQKYPHTHLVQQANPRGSAGPCCTPTKMSPINMLYFNDKQQIIYGKIPGMVVDRCGCS
B6: BMP-9 (ligand, UniProt Q9UK05 320-429, looked up)
chain: SAGAGSHCQKTSLRVNFEDIGWDSWIIAPKEYEAYECKGGCFFPLADDVTPTKHAIVQTLVHLKFPTKVGKACCVPTKLSPISVLYKDDMGVPTLKYHYEGMSVAECGCR
notes: also called bone morphogenetic protein 9

Test in all cases: SPR (Biacore 3000), Fc fusion captured, ligand in solution
Background: In SPR one partner is held on a chip, and binding of the other changes the refractive index at the surface.

For one test, the target named is T1, Activin A (UniProt P08476 311-426).
T1 sequence (looked up): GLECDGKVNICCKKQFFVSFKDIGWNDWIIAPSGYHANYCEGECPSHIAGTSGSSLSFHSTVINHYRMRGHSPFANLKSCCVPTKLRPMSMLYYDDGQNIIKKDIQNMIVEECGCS
The text has this:
(§1) The GE Biacore 3000 was used to measure the kinetics of the interactions between the ActRIIB-Fc variants and the ligands Activin A, Activin B, growth differentiation factor 11 (GDF11), and BMP-9. […] All other ActRIIB-Fc variants were expressed by transient expression in HEK293 cells and purified from the conditioned media using Protein-A Sepharose chromatography. Flow cells 1-4 were immobilized with anti-human/anti-mouse capture antibodies from GE using the amine coupling kit. The ActRII-Fc proteins were then captured on the chip in flow cells 2-4, with flow cell 1 being left empty as a reference cell to measure and subtract any nonspecific binding. HBS-EP+ buffer from GE Healthcare™ was used as a running buffer. Each ligand was run in a duplicate concentration series at 40 μl/min to avoid mass transport effects. All data was collected on a CM-5 chip except for GDF-11, which used CM-4. The data was analyzed using Scrubber2 by BioLogic™ Software to calculate the KD of each interaction (Table 4).

The target of another test is T2, Activin B (UniProt P09529 293-407).
T2 sequence (looked up): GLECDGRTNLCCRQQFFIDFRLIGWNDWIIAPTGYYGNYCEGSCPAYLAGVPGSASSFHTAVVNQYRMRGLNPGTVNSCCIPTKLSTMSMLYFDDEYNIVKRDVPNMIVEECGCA
Excerpt: as §1

Test [1] concerns the target B3.
Excerpt: as §1

The test “BMP-9” addresses B6.
Excerpt: as §1

Test [2] concerns the target B1.
Excerpt: as §1

The next test addresses T3, BMP-9, Q9UK05.
T3 chain: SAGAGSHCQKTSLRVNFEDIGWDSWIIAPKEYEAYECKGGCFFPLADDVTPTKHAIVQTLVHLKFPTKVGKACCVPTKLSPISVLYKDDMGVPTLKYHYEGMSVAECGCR
Conditions: remark: other sources report otherwise.

In the case of B1, the Kd (usually the free concentration of one partner at which half of the binding sites on the other are occupied at equilibrium, for simple one-to-one binding) is 0.063 nM in the test with Activin A and 0.023 nM in the test with Activin B.

B2: ActRIIBΔ9 variant (SEQ ID NO: 3)-Fc (Fc fusion, not shown: a dimerising Fc or GST)
chain: GRGEAETRECIYYNANWELDRTNQSGLERCEGEQDKRLHCYASWRNSSGTIELVKKGCWLDDINCYDRQECVATKENPQVYFCCCEGNFCNERFTHLPEAGGPEVTYEPPPTAPT
notes: Engineered variant of the human ActRIIB extracellular portion
B2: the Kd was determined as 390 nM with Activin A, 400 nM with Activin B, 530 nM in test [1] and 28 nM with BMP-9.

The molecule B3 registered a Kd in test [2] of 0.12 nM. This counts as sub-nanomolar.

B4: ActRIIB 2.11 variant (SEQ ID NO: 14)-Fc (Fc fusion, not shown: a dimerising Fc or GST)
chain: GRGEAETRECLYYNANWELERTNQSGVERCEGEKDKRLHCYASWRNSSGSLEIVKKGCWLDDFNCYDRTDCVATKENPQVYFCCCEGNMCNERFTHLPEAGGPEVTYEPPPTAPT
notes: Engineered variant of the human ActRIIB extracellular portion; recombinant protein
B4: the Kd with Activin A came to 0.78 nM; with Activin B, 0.37 nM; in test [1], 0.24 nM; in the test with BMP-9, 2.7 nM.

B5: ActRIIB 2.05 variant (SEQ ID NO: 8)-Fc (Fc fusion, not shown: a dimerising Fc or GST)
chain: GRGEAETRECIYYNANWELERTNQSGLERCYGDKDKRLHCYASWRNSSGTIELVKKGCWLDDFNCYDRQECVAKKDSPEVYFCCCEGNFCNERFTHLPEAGGPEVTYEPPPTAPT
notes: as for B2
Take B5: the binding result in the test with BMP-9 is given as “no binding”.

Consider B6, for which the Kd in test [2] stood at 0.28 nM.

B7: ActRIIB 2.09 variant (SEQ ID NO: 12)-Fc (Fc fusion, not shown: a dimerising Fc or GST)
chain: GRGEAETRECLYYNANWELERTNQSGVERCEGEKDKRLHCYASWRNSSGSLEIVKKGCWLDDFNCYDRTDCVATEENPQVYFCCCEGNMCNERFTHLPEAGGPEVTYEPPPTAPT
notes: Engineered variant of the human ActRIIB extracellular portion; also called ActRIIB variant 2.09-hFc
On to B7, for which the Kd with Activin A amounted to 0.1 nM; with Activin B it was 0.16 nM; with BMP-9, 0.44 nM.

B8: ActRIIB 2.12 variant (SEQ ID NO: 15)-Fc (Fc fusion, not shown: a dimerising Fc or GST)
chain: GRGEAETRECLYYNANWELERTNQSGVERCEGEKDKRLHCYASWRNSSGSLEIVKKGCWLDDFNCYDRDTCVATKENPQVYFCCCEGNMCNERFTHLPEAGGPEVTYEPPPTAPT
notes: as for B4
Regarding B8, the Kd in the test with Activin A came out at 0.14 nM; with Activin B, 0.16 nM; in test [1], 0.13 nM; with BMP-9 it was 31 nM.

B9: ActRIIB 2.06 variant (SEQ ID NO: 9)-Fc (Fc fusion, not shown: a dimerising Fc or GST)
chain: GRGEAETRECIYYNANWELERTNQSGLERCEGEQDKRLHCFASWKNSSGTIELVKQGCWLDDFNCYDRQECVAKKDSPEVYFCCCEGNFCNERFTHLPEAGGPEVTYEPPPTAPT
notes: Engineered variant of the human ActRIIB extracellular portion; recombinant protein; also called ActRIIB variant 2.06-hFc
Take B9: the Kd with Activin A stood at 0.053 nM; with Activin B, 0.1 nM; in test [1], 0.027 nM; in the test with BMP-9 it was 0.3 nM.

B10: ActRIIB 2.10 variant (SEQ ID NO: 13)-Fc (Fc fusion, not shown: a dimerising Fc or GST)
chain: GRGEAETRECLYYNANWELERTNQSGVERCEGEKDKRLHCYASWRNSSGSLEIVKKGCWLDDFNCYDRDTCVATEENPQVYFCCCEGNMCNERFTHLPEAGGPEVTYEPPPTAPT
notes: Engineered variant of the human ActRIIB extracellular portion; also called ActRIIB variant 2.10-hFc
Turning to B10, the Kd with Activin A stood at 0.45 nM; in the test with Activin B, 0.28 nM; with BMP-9, 1.7 nM.

B11: ActRIIB/A variant (SEQ ID NO: 2)-Fc (Fc fusion, not shown: a dimerising Fc or GST)
chain: GRGEAETRECIFYNANWEKDRTNQSGLEPCYGDQDKRRHCFASWKNSSGTIELVKQGCWLDDINCYDRQECVAKKDSPEVYFCCCEGNFCNERFTHLPEAGGPEVTYEPPPTAPT
notes: Engineered variant of the human ActRIIB extracellular portion; expressed transiently in HEK293 and Protein A purified (SPR); conditioned media in the reporter assay; also called ActRIIB/A-Fc
On to B11, for which the binding result (with Activin A; with Activin B; in test [1]) was “no binding” in each case. The Kd with BMP-9, Q9UK05 was 88 nM.
